Assay results reported in patent publication US20260049151A1 (SHENGHE CHINA BIOPHARMACEUTICAL, published 2026).
Read-outs that look alike come from different tables or passages of the source. Blank lines part the entries; values can stand above or below the binder they belong to.

Tests used:
Human-TNFR2-His [1] = biological target: T1, Human-TNFR2-His (human, UniProt P20333 23-257); assay: ELISA: Human-TNFR2-His coated (0.1 ug/mL), antibody titrated, goat anti-human IgG Fc detection (Example 2)
T1 construct: Bought protein; also called human TNFR2 protein; TNFR2 protein; not shown: His tag
T1 sequence (looked up): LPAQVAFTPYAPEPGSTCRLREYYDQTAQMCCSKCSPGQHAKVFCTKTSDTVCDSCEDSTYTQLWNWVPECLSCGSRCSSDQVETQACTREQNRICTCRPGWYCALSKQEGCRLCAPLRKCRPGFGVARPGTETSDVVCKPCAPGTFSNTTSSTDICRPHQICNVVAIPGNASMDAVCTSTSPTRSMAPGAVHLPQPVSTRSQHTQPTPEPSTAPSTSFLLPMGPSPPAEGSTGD
Experimental: (§1) Human-TNFR2-His (manufacturer: SINO, CAT: 10417-H08H, LOT: LC15NO0412) was diluted to 0.1 μg/mL with a coating solution (1×PBS, pH7.4), and coated in 96-well ELISA plate at 100 µL/well overnight at 4° C. The coating solution was poured off. Each well was washed with 1×PBST at 300 μL, washed 4 times with a plate washer, and patted dry on a flat paper. It was blocked with 3% skim milk powder at 300 μL/well, and incubated at 37° C. for 1 h. The blocking solution was poured off, washed 4 times with a plate washer, and patted dry on a flat paper. Negative control and positive control were set up. […] The positive control and antibody were diluted to 10 μg/mL with 3% skim milk powder as the starting concentration, and then diluted by 3-fold gradient (11 gradients in total), and a blank well was set up and only the diluent was added. It was incubated at 37° C. for 1 h at 100 μL/well. The liquid in the well was discarded, washed 4 times with a plate washer, and patted dry on a flat paper. Goat anti-human IgG Fc was diluted with 3% skim milk powder at 1:10000, and incubated at 37° C. for 1 h at 100 μL/well. It was washed 6 times with a plate washer, and patted dry on a flat paper. TMB color developing solution was added at 100 μL/well, and wrapped with aluminum foil. Color development was performed at 37° C. in the dark for 8 min. Termination solution 1M HCl was added to terminate the color development reaction at 100 μL/well. Readings were taken at 450 nm on an ELISA reader.

Human 4-1BB His [2] = biological target: T2, Human 4-1BB His (human, UniProt Q07011 24-186); assay: ELISA: Human 4-1BB His coated (0.2 ug/mL), antibody titrated, goat anti-human IgG Fc detection (Example 3)
T2 construct: Bought protein; lots 198-2146F1-W6 and 2407c-214FF1-YC; also called human 4-1BB protein; 4-1BB protein; not shown: His tag
Experimental: (§2) Human 4-1BB His (manufacturer: Acro, CAT: 41B-H5258, LOT: 198-2146F1-W6) was diluted to 0.2 μg/mL with a coating solution (1×PBS, pH7.4), and coated in 96-well ELISA plate at 100 μL/well overnight at 4° C. The coating solution was poured off. Each well was washed with 1×PBST at 300 μL, washed 4 times with a plate washer, and patted dry on a flat paper. It was blocked with 3% skim milk powder at 300 μL/well, and incubated at 37° C. for 1 h. The blocking solution was poured off, washed 4 times with a plate washer, and patted dry on a flat paper. Negative control and positive control were set up. […] The variable region of the antibody sequence of the positive control consists of SEQ ID NO: 15 and SEQ ID NO: 19, with the addition of the constant region of human IgG1 (SEQ ID NO: 46 and SEQ ID NO: 47). The positive control and antibody were diluted to 10 μg/mL with 3% skim milk powder as the starting concentration, and then diluted by 3-fold gradient (11 gradients in total), and a blank well was set up and only the diluent was added. It was incubated at 37° C. for 1 h at 100 μL/well. The liquid in the well was discarded, washed 4 times with a plate washer, and patted dry on a flat paper. Goat anti-human IgG Fc was diluted with 3% skim milk powder at 1:20000, and incubated at 37° C. for 1 h at 100 μL/well. It was washed 6 times with a plate washer, and patted dry on a flat paper. TMB color developing solution was added at 100 μL/well, and wrapped with aluminum foil. Color development was performed at 37° C. in the dark for 8 min. Termination solution 1M HCl was added to terminate the color development reaction at 100 μL/well. Readings were taken at 450 nm on an ELISA reader.

Human 4-1BB His [3] = biological target: T2, Human 4-1BB His; assay: as above; remark: listed apart in the source
Human-TNFR2-His [4] = biological target: T1, Human-TNFR2-His; assay: ELISA: Human-TNFR2-His coated (0.1 ug/mL), antibody titrated, goat anti-human IgG Fc detection (Example 2); remark: listed apart in the source
Experimental: as §1

Human 4-1BB His [5] = biological target: T2, Human 4-1BB His; assay: ELISA: Human 4-1BB His coated (0.2 ug/mL), antibody titrated, goat anti-human IgG Fc detection (Example 3); remark: listed apart in the source
Experimental: as §2

T2 sequence (Q07011 24-186 limits assumed): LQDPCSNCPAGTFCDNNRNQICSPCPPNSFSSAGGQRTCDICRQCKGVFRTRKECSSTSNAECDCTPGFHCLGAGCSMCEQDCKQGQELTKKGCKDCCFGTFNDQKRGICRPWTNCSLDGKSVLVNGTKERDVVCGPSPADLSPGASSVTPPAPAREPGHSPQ

EC50 (read off the curve) (Human-TNFR2-His [1]): ~0.09 nM | EC50 (read off the curve) (Human 4-1BB His [2]): ~0.2 nM | EC50 (read off the curve) (Human 4-1BB His [3]): ~0.2 nM
B1: Antibody E1 (bispecific antibody, human IgG1, kappa)
light: DIVMTQSPATLSVSPGERATLSCKASQNVGSNVDWYQQKPGQSPRVLIYKASIRYTGIPARFSGSGSGTEFTLTISILQSEDFAVYFCMQSKSYPITFGQGTKLEIKRTVAAPSVFIFPPSDEQLKSGTASVVCLLNNFYPREAKVQWKVDNALQSGNSQESVTEQDSKDSTYSLSSTLTLSKADYEKHKVYACEVTHQGLSSPVTKSFNRGEC
heavy: not shown
notes: IgG1 subtype; full-length TNFR2 antibody with 4-1BB scFv at the C-terminus of the heavy chains

EC50 (read off the curve) (Human-TNFR2-His [4]): ~0.08 nM
B2: Antibody H (bispecific antibody, human IgG1, kappa)
light: QVQLQESGPGLVKPSETLSLTCTVSGSSLTSYGVHWVRQPPGKCLEGLGVIWPGGSTNYNSALMSRVTISKDNSKSQVSLKMSSLTAADTAVYYCARVTGTWYFDVWGQGTTVTVSSGGGGSGGGGSGGGGSDIQMTQSPSSLSASLGDRVTISCSASQGISNYLNWYQQKPDGTVKLLIYYTSTLHSGVPSRFSGSGSGTDYTLTISSLQPEDIATYYCQQYSKLPWTFGCGTKLEIKGGGGSGGGGSGGGGSDIVMTQSPATLSVSPGERATLSCKASQNVGSNVDWYQQKPGQSPRVLIYKASIRYTGIPARFSGSGSGTEFTLTISILQSEDFAVYFCMQSKSYPITFGQGTKLEIKRTVAAPSVFIFPPSDEQLKSGTASVVCLLNNFYPREAKVQWKVDNALQSGNSQESVTEQDSKDSTYSLSSTLTLSKADYEKHKVYACEVTHQGLSSPVTKSFNRGEC
heavy: not shown
notes: IgG1 subtype; full-length TNFR2 antibody with 4-1BB scFv at the N-terminus of the light chains

EC50 (read off the curve) (Human 4-1BB His [5]): ~0.09 nM
B3: Antibody M1 (bispecific antibody, human IgG1, kappa)
light: DIQMTQSPSSLSASLGDRVTISCSASQGISNYLNWYQQKPDGTVKLLIYYTSTLHSGVPSRFSGSGSGTDYTLTISSLQPEDIATYYCQQYSKLPWTFGGGTKLEIKRTVAAPSVFIFPPSDEQLKSGTASVVCLLNNFYPREAKVQWKVDNALQSGNSQESVTEQDSKDSTYSLSSTLTLSKADYEKHKVYACEVTHQGLSSPVTKSFNRGEC
heavy: not shown
notes: IgG1 subtype; full-length 4-1BB antibody with TNFR2 VHH at the N-terminus of the heavy chains
